From patent US20220162261A1 (published 2022) come the findings set out here.

Bridge positions count the residues as written; N and C are the ends. Square brackets hold non-standard residues; d marks the D form. Ends that are not written are not given here. Phe(4-tBu) = CC(C)(C)c1ccc(C[C@H](N)C(=O)O)cc1; NMeR = CN[C@@H](CCCNC(=N)N)C(=O)O; β3hE = N[C@@H](CCC(=O)O)CC(=O)O; Pen = CC(C)(S)[C@H](N)C(=O)O

In assay [1] the target is T1, mouse α4β7 integrin on TK1 cells (mouse, UniProt Q00651 41-1039; P26011 20-806).
T1 construct: whole, on cells; also called α4β7 cell (Mu); Cell Adhesion α4β7 Mouse
The assay is described as follows: TK1 cell adhesion to MAdCAM-1.

Assay [2] deals with T2, human α4β7 integrin on cells (human, UniProt P13612 34-1032; P26010 20-798).
T2 construct: whole, on cells; also called α4β7 cell (Hu); RPMI8866 cells
Kind of assay: RPMI8866 cell adhesion to MAdCAM-1.

In assay [3] the target is T2, human α4β7 integrin on cells. The assay is described as follows: α4β7 T cells.
For assay [4] the target is unchanged. Kind of assay: memory T cell adhesion to MAdCAM-1, average of 4 donors.
The target of assay [5] is T3, human α4β1 integrin on cells (human, UniProt P13612 34-1032; P05556 21-798).
T3 construct: whole, on cells; also called α4β1 cell; Jurkat cells
The assay is described as follows: memory T cell adhesion to VCAM-1.

Assay [6] addresses T4, α4β1 (R&D Systems #5668-A4) (UniProt P13612 34-970; P05556 21-728, limits assumed).
T4 construct: bought; also called soluble α4β1
Kind of assay: competition ELISA vs VCAM-1, 1 mM Mg. Here is the method:
The solution was removed by shaking and then blocked with 250 ul of 1% BSA in 1×PBS per well. The wells were then incubated at room temperature for 1 hr with shaking. Each well was then washed once with wash buffer (50 mM Tris-HCl pH7.6, 100 mM NaCL, 1 mM MnCl2 or MgCl2, 0.05% Tween-20). 25 ul of serial dilutions of peptides starting at […] in assay buffer (Assay buffer: 50 mM Tris-HCl pH7.6, 100 mM NaCl, 1 mM MnCl2 or MgCl2, 0.05% Tween-20) was added to each well. Additionally, 25 ul of α4β1 (R&D Systems #5668-A4) was added to each well at a fixed concentration of 120 nM. The final peptide and α4β1 concentrations were […] and 60 nM, respectively. The plates were then incubated at 37° C. for 2 hr. The solution was then removed by shaking, and each well was washed three times with wash buffer. 50 ul of 9F10 antibody at 4 ug/ml (purified mouse anti-human CD49d, BD Bioscience Cat #555502) was then added to each well, and the plate was incubated at room temperature for 1 hr with shaking. The solution was again removed by shaking, and each well was washed three times with wash buffer. 50 ul of peroxidase-conjugated AffiniPure Goat anti-mouse IgG (Jackson immune research cat #115-035-003) diluted in 1:5000 in assay buffer was added to each well. The plate was incubated at room temperature for 30 min with shaking. […] The reaction was stepped with 2N H₂SO₄ and absorbance was read at 450 nm. […]

In assay [7] the target is T5, human αLβ2 integrin on cells (human, UniProt P20701 26-1170; P05107 23-769).
T5 construct: whole, on cells; also called aLβ2
Kind of assay: memory T cell adhesion to ICAM-1.

The target of assay [8] is T6, rh integrin α4β7 (R&D Systems #5397-A30) (human, UniProt P13612 34-970; P26010 20-723).
T6 construct: bought; coated on a nickel coated plate; also called immobilized α4β7; immobilized α4β7 integrin protein
Kind of assay: competition ELISA vs MAdCAM-1, 1 mM Mg. For orientation: In an ELISA, binding on a coated surface is turned into a signal by an enzyme label.

In assay [9] the target is T7, soluble α4β7 integrin (UniProt P13612 34-970; P26010 20-723, limits assumed).
T7 construct: analyte of the SPR experiment
The assay is described as follows: SPR, binder on streptavidin chip, soluble α4β7. Background: SPR reads the build-up and loss of mass on a sensor chip optically.

In assay [10] the target is T7, soluble α4β7 integrin. Kind of assay: SPR.
The target in assay [11] is T2, human α4β7 integrin on cells. Kind of assay: RPMI8866/MAdCAM cell adhesion.

T5 sequence (P20701 26-1170, chain 1 of 2): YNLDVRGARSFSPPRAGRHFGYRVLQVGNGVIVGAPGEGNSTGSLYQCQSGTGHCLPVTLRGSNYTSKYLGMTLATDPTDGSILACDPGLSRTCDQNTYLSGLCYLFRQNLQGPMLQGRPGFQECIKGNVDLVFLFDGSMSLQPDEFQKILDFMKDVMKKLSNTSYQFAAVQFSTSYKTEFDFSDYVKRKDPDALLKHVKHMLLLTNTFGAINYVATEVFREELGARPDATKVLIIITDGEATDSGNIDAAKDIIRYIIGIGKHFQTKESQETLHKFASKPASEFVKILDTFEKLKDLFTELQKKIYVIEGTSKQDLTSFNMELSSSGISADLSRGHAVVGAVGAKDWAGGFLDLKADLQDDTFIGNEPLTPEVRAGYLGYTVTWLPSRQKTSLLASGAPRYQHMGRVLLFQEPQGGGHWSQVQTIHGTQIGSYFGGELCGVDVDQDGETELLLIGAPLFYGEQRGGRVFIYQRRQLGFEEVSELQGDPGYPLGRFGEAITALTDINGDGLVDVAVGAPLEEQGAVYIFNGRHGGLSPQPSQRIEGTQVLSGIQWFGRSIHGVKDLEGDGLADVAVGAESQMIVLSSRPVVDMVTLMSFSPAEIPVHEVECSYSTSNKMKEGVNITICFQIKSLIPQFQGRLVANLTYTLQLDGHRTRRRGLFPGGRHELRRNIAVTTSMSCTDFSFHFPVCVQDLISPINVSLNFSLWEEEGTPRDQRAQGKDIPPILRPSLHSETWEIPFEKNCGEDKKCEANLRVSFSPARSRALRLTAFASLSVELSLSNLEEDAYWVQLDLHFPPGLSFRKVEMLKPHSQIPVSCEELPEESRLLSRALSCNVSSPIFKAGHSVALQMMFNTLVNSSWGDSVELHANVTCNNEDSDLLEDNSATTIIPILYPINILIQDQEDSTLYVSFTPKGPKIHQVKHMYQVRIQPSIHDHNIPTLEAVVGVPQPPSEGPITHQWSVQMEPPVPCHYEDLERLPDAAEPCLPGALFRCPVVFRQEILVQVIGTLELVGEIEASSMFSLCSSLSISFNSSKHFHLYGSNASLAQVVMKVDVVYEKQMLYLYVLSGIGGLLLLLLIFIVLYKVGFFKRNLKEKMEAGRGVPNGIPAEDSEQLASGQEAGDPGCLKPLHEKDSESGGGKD
T5 sequence (P05107 23-769, chain 2 of 2): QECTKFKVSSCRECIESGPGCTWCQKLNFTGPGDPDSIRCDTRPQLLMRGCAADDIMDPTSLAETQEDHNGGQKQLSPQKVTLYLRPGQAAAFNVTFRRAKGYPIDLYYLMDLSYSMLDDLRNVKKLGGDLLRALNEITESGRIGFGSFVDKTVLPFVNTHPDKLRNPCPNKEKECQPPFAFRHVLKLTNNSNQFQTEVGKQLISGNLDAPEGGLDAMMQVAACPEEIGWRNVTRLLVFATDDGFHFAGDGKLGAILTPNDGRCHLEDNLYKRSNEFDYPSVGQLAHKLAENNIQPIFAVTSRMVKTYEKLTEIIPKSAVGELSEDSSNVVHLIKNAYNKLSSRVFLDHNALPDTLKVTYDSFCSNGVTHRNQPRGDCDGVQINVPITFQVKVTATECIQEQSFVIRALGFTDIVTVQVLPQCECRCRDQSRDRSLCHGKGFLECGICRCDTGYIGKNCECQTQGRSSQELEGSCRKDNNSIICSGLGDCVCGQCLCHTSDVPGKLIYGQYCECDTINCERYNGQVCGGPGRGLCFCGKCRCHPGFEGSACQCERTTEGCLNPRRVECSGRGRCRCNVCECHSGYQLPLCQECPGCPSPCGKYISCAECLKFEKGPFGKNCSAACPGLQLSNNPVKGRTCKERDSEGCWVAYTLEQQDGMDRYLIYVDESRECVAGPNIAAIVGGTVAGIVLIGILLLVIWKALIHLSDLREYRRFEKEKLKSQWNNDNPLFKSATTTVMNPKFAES
T1 sequence (Q00651 41-1039, chain 1 of 2): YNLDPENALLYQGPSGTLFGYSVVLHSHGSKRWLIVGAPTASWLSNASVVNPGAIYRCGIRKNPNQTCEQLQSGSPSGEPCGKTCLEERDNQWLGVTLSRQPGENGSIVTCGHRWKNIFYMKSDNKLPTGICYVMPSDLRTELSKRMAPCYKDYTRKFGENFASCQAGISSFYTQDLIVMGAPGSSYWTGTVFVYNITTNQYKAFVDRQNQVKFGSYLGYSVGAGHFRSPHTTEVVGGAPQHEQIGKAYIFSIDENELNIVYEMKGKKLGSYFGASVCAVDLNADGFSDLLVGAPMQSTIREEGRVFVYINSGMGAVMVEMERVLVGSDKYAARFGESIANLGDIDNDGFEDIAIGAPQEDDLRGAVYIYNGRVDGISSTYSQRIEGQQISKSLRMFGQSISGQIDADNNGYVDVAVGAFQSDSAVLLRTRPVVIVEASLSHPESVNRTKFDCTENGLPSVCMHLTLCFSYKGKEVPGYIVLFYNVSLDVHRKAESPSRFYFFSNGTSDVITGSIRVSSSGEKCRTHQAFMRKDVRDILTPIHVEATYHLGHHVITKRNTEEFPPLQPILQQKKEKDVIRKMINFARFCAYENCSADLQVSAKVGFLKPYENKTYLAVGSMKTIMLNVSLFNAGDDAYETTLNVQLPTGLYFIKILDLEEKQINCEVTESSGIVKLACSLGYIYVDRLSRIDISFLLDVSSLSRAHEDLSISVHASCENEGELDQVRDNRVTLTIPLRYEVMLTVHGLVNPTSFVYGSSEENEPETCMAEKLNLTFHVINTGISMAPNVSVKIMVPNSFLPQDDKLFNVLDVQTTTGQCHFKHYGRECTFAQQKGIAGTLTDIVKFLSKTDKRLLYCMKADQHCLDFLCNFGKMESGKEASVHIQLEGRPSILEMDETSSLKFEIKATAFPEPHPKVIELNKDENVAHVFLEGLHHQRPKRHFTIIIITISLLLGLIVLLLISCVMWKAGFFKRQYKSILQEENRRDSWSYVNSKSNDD
T1 sequence (P26011 20-806, chain 2 of 2): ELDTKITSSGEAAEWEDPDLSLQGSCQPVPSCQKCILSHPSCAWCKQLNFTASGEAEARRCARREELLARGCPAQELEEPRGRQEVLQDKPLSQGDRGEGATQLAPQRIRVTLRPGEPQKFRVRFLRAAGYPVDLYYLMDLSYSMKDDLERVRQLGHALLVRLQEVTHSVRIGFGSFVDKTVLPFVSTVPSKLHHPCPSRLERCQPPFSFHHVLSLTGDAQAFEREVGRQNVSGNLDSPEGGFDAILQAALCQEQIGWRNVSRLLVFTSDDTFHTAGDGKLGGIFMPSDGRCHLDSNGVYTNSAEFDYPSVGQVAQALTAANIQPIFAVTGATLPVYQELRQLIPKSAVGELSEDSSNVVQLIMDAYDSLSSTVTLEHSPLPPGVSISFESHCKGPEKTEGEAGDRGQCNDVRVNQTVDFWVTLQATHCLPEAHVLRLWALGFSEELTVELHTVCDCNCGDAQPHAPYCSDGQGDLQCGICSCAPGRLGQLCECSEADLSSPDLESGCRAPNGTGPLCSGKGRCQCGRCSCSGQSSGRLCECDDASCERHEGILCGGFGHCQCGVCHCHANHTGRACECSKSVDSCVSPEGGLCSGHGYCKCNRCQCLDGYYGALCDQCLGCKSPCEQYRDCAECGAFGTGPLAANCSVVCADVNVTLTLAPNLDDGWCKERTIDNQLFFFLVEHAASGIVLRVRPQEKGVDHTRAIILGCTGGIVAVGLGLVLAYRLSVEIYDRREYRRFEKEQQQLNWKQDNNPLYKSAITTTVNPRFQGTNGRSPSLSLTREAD

B1: Peptide X (peptide)
peptide: Ac-[Pen][NMeR]SDTL[Pen][Phe(4-tBu)][β3hE][dK]
modifications: disulfide 1-7; not fully specified (residue 10); printed as [Ac-Pen-(N-Me-Arg)-Ser-Asp-Thr-Leu-Pen-Phe(4-tBu)-(β-homoGlu)-(D-Lys)]2-DIG; also: homodimer via DIG linker on D-Lys side chains
notes: also called Compound X
In the case of B1, the IC50 (in general, the concentration that gives 50% inhibition) in [1] is 0.5 nM; in assay [2], 0.72 nM; in [3], 1 nM; in assay [4], 1.3 nM; in assay [5], > 100000 nM; in [6], > 10000 nM. Moreover, the figures for the IC50 in assay [7] and in assay [8] were > 100000 nM and 3 nM, respectively.

B2: Peptide X-biotin (peptide)
peptide: Ac-[Pen][NMeR]SDTL[Pen][Phe(4-tBu)][β3hE][dK]
modifications: disulfide 1-7; not fully specified (residue 10); also: dimer of two subunits joined by a linker at D-Lys10, biotin attached via PEG linker, position not given here
For B2, in assay [9], the Kd (as a rule, the equilibrium constant for the complex coming apart) was 15.4 nM; the koff (usually the first-order rate constant of dissociation) was 1.73e-05 s⁻¹; the kon – broadly, the second-order rate constant of association – came to 1120 M⁻¹ s⁻¹. Besides, the “fold lower KD than biotin-labeled vedolizumab” value in [10] stood at 3.8 fold.

B3: Peptide X Alexa 647 conjugate (peptide)
peptide: Ac-[Pen][NMeR]SDTL[Pen][Phe(4-tBu)][β3hE][dK]
modifications: disulfide 1-7; not fully specified (residue 10); also: Alexa 647 label, position not given here
For the molecule B3, 0.15 nM corresponded to half-maximal inhibition in [11] (IC50).
